The values that follow are results of earlier work, collected in paper PMC4624693.

One data set addresses Asp27 (UniProt position 1003, HIESLDSYTCN). Description: NMR. Particulars: free, folded protein.
For another data set, the target named is Glu51 (UniProt position 1027, DLRWWELRHAG). Put plainly: NMR. The conditions noted are these: free, folded protein.
A further data set deals with Asp40 (UniProt position 1016, IGYSGDRCQTR). Description: NMR. The conditions noted are these: free, folded protein.
The target in another data set is His22 (UniProt position 998, GGVCMHIESLD). Description: NMR. The conditions noted are these: free, folded protein.
The target of another data set is Nterm1 (UniProt position 977, HHLDRNSYPGC). Description: NMR. The conditions noted are these: free, folded protein.
Another data set deals with Cterm53 (UniProt position 1029, RWWELRHAGYG). Put plainly: NMR. Particulars: free, folded protein.
For another data set, the target named is Asp46 (UniProt position 1022, RCQTRDLRWWE). Description: NMR. The conditions noted are these: free, folded protein.
Another data set concerns the target Glu24 (UniProt position 1000, VCMHIESLDSY). Put plainly: NMR. Particulars: free, folded protein.
In another data set the target is Asp11 (UniProt position 987, CPSSYDGYCLN). Description: NMR. The conditions noted are these: free, folded protein.
The target of a further data set is Lys66 (UniProt position 148, FTKKMKENAKK).
The next data set addresses Asp. Particulars: free peptide.

Turning to “Epidermal growth factor (mouse EGF) (Mus musculus)”, the pKa was 4.0±0.1 in the data set with Asp27; roughly 4 in the data set with Glu51; 3.6±0.1 in the data set with Asp40; 6.8±0.1 in the data set with His22; 7.7±0.1 with Nterm1; 3.5±0.1 with Cterm53. Further, the pKa in the data set with Asp46 is listed as 3.8±0.1; with Glu24, 4.1±0.1; with Asp11, 3.9±0.05.

For the molecule “Staphylococcal nuclease Delta+PHS/V66K (Staphylococcus aureus; V66K; Delta+PHS background (substitutions not listed in the article))”, the pKa with Lys66 is 5.6.

For SDNKTYG, the pKa with Asp was 3.6.
